Experimental data published in the DeepSol protein solubility set.

Test: soluble on expression in E. coli; label from the status in PepcDB or PDB records

Row | Sequence | soluble on expression in E. coli
1 | MAFVPPQAGYDRAITVFSPDGRLFQVNYAREAVKRGATAVGVKCNEGVVLAVEKRITSRLIEPESYEKIFQIDDHIAAASSGIIADARVLVNRARLEAQIHRLTYGEPAPLAVIVKKICDLKQMHTQYGGVRPFGAALLMAGVNEKPELYETDPSGAYFAWKAVAIGSGRNTAMAIFEEKYKDDMSLEEAIKLAIFALAKTMEKPSAENIEVAIITVKDKKFRKLSREEIEKYLNEVMKEVEEEEVKEKEEDYSELDSHY | soluble
2 | MVHIRLSFITFSLILFLVVDMVKIPKSHPRYWSLLYREKIIEGMEKGITAKAGLIAHGRGEAFDYLIGEKTIPPAETAMRAAIAKLLLAKHPVISVNGNVAALVPKETVELAKVLNAKLEINLFYRTEERVKKIAEVLYENGADEVLGINPTKRIPGLESERGKVDENGIWKADVILVPLEDGDRTEALCRMGKFVITVDLNPLSRSARMADITIVDNIVRAYPRMIELAKEMKSLPKEDLEKIVATYDNSKVLSEVLIHIRDRLTKLAEGGIWKKEKLEHHHHHH | not soluble
3 | MIELKHLRTLQALRNTGSLAAAATQLHQTQSALSHQFSDLEQRLGFRLFVRKSQPLRFTTQGEILLQLAEQVLPQIKQALQTCNEPHQTALRIAIECHSCIQWLTPALDNFHKHWPQVTMDFKSGVTFDPQPALQQGELDLVLTSDILPRSGLHYSPMFDFEVRLVLAPDHPLANKDRIEPEDLAPEVLMIYPVQRQRLDVWRHFLQPAGVSPSSKNVDNTLLLIQMVSARMGIAALPHWVVESFERQGLVVTKTLGEGLWSRLYAAVRDGEQRQPVTEAFIRSARQHACDHLPFVKDAVRSNAGVPTAKPLSPQLQ | not soluble
4 | MSPPLAEERLTRIVQLLAERGTLRTAALTELLGVSSATIRRDLDVLAGRGLIRKLHGGAALAAPEPEAPLNQDQFYRDRQQVNHLGKQRLAGRALELIAPGQTLYLDAGTTALALAEALQRTPQLTRTLRVVTHGIDVAYVLNGECALYVVGGEVYGSTYSLTGPDALSTVSRYNYDLFFVSCTSIDPAGRLTNSNSVEAQQKASILRQSRRSVLIADQSKWGPPGFAPFAGFAEVSAWVTDRAPATARAAFEQAGVTVLEADASARELSADLEHHHHHH | soluble
5 | TSTDWKEAKSFLKGLSDKQREEHYFCKDFVRLKKIPTWKEMAKGVAVKVEEPRYKKDKQLNEKISLLRSDITKLEVDAIVNAANSSLLGGGGVDGCIHRAAGPLLTDECRTLQSCKTGKAKITGGYRLPAKYVIHTVGPIAYGEPSASQAAELRSCYLSSLDLLLEHRLRSVAFPCISTGVFGYPCEAAAEIVLATLREWLEQHKDKVDRLIICVFLEKDEDIYRSRLPHYFPVA | soluble
6 | MSLGYKQIRDVSVLCDFAANCTLSLNPGTGENAPGIGLYRSSKADSIPELRLSFSEQMPKTGKLEILVDGKPELDTNIAALKVRNNELVYVDEAGVAKLIGAMKNGQKLQLKLADKVSGYSLSGFVGGLIYLDEQQARDGTVAALQVKGTKPAPAAPDITLIETVEQIPEGIRKDFSDDAATCGGASPESFRLAGGFVTKIADGLNLVGLPCGAPGAYNQPYVFYSRYENRIVPVSLPVISDDGPTTTDSAWNIDWNNRTRTLTGFFKGRGIGDCGTYDVWKAVDSGEGRVSFVLKEERAKGDCDGNYAGGPQNWPASWPPKTKEGHHHHHH | soluble
7 | MIDERDKIILEILEKDARTPFTEIAKKLGISETAVRKRVKALEEKGIIEGYTIKINPKKLGYSLVTITGVDTKPEKLFEVAEKLKEYDFVKELYLSSGDHMIMAVIWAKDGEDLAEIISNKIGKIEGVTKVCPAIILEKLK | soluble
8 | MPPFKRTKIVATLGPATDDKEVIRALAEAGADVFRLNFSHGAPEDHRRRVGWVREVAEELGRTLAVLQDLQGPKIRVGRFREGQVLLRPGQRFVLTAEPVEGDEHRVSVSYKGLPEDVSPGQILLLDDGRIRLKVLEVRSPEILTEVEVGGVLSNNKGINIPGADLSIPALSEKDIQDLALGAELGVDWVAVSFVRTRDDLLLARHYLSRYGSKARLMAKIEKPSAVARFEEILEEADGIMVARGDLGVEMPLEEVPIVQKRLILRCIAAGKPVITATQMLESMVQNPSPTRAEASDVANAIFDGTDAVMLSAETAAGAYPVEAVAMMARIAKAVESSPEFLQKLNVLRPAPTPTTQDAIAQAADDVVEAVGARAIVVFTATGGSARRIARTRPQVPILALTPNPEVRNQLALVWGVYPHLAPDPQDTDDMVRIALREVKALGLAQVGDRVVIAAGVPFGVRGTTNLIRVERVG | soluble
9 | MGSDKIHHHHHHMEDKLISRYDILVNRYKELVSEKLSRKDFIEYNEILFSAHSCAIEGNSFSVDETRTLKEKGLGMIPKGKTLLEAFEILDHFQAYEYLLKNLDRPLTEELLKETHRLLTEHTLSYKTQYDEIPSNPGEYTTVDMCAGDTIFGDHEQLIKQVPRLLQSTQQVLDSGKIHPMIIAARFHGFYEYLHPFRDGNGRLGRLMSNFILLKKEQPLLIIPGSQREEYITALKYIKKERTDEFLIDFFFRTSIKRMEQEIEEKKNLTENFIRGMEFVRNVKSSNDDISEI | not soluble
10 | SLSETLYTGISQLATPRPGPQRGAAMGDLHIIEDAALLVRGGVIQWVGPRAAAPTATHVHDLGGRAVVPGLVDPHTHAVWAGDRLSDWEAKLQGATYEEILARGGGIRSTMRATAAADVAELVALARPRLASLRASGATTTEVKSGYGLDFDAELRMLRAVRELQAEFELRPTLLIHVPPQEGRAEYVVGVCAELIPQVAREGLAEALDVFCEKEAFSVEETRTMFAAAQAHGLRVKLHADQFHAIGGTELACEVGALSVDHLEASGAAQIAALAASETVATILPGVTLHLGLPAAPGRQLIDSGAIVAIGTDLNPGSSPLFSTQLALALAVRLCLLTPAEALSACTVNAAYALGLSDRGSLSAGQRADFLVLNGQDWREVAYTLGGNAVAEVYLAGAQL | soluble
11 | MRLEIPNHTERFGVVRLHEVQRILELDSGRVRDESPAVGLRRLDDADLRDVLEQTAIVVPTRNERLKLLEGVLSGIPHEALILVASNSSPDRFQMERDLLEEFAHLTERPALIFHQKDPALAEALRAGGYPHPIGEDGLVRSGKAEGMILALVFAALSGRRYVGFIDADNYFPGAVWEYVRAYAAGFLMAKTPFAMVRILWRYKPKLTEDEGVVFRRYGRVSERNNRALNQLIGGVSGFETDVVKTANAGEHAMSLGLALRLPLASGYAVEPQELVSLLELYGGVFPLEDEEVLQHGVEIFQIETRNPALHENKGDEHIRDMLLACLATVYHSKLATEEVRQSVLEELQAAGALAPGEEPPPPVLYPPLSSLDLQAVRKALRGHFSRFRVP | soluble
12 | SDLPDSASRVFCGRILSMVNTDDVNAIILAQKNMLDRFEKTNEMLLNFNNLSSARLQQMSERFLHHTRTLVEMKRDLDSIFRRIRTLKGKLARQHPEAFSHIPEASFLEEEDEDPIPPSTTTTIATSEQSTGSCDTSPDTVSPSLSPGFEDLSHVQAGSPAINGRSQTDDEEMTGE | soluble
13 | GPGSMRVNDSITVQQLADEYCITSVVECDATGSVQPRAVALDSPLDVLHGGKYYIARRDVKHFAREPRVTFRGKVTVREFNATHGVIGREGETNANRGQAVAADPVGVAPSRKRPEREEDLFDSGTRTEIYAKEYEFVPFVGDLYNDGRNGMIHLKDVKKLCESVDLDEVEFRARHVQAEKILTHAKQLLLSYADGNGGRTSPEY | not soluble
14 | MGSSHHHHHHSQDPPAVHKLTKRIPLRRQVTVSAESSSSMNSNTPLVRITTRLSSTADTPMLAGVSEYELPEDPKWEFPRDKLTLGKPLGEGCFGQVVMAEAVGIDKDKPKEAVTVAVKMLKDDATEKDLSDLVSEMEMMKMIGKHKNIINLLGACTQDGPLYVIVEYASKGNLREYLRARRPPGMEYSYDINRVPEEQMTFKDLVSCTYQLARGMEYLASQKCIHRDLAARNVLVTENNVMKIADFGLARDINNIDYYKKTTNGRLPVKWMAPEALFDRVYTHQSDVWSFGVLMWEIFTLGGSPYPGIPVEELFKLLKEGHRMDKPANCTNELYMMMRDCWHAVPSQRPTFKQLVEDLDRILTLTTNEE | soluble
15 | MPDISIILLGNYAPDQVIHARLLFMRMEQVPGGHHLQILQFRFTIPFRQADFCSLDQSDVMCSETHCYYLMNLKVGAFFETAQNILMIRWLFS | not soluble
16 | MDYTPHTEEEIREMLRRVGAASLEDLFAHLPKEILSPPIDLPEPLPEWKVLEELRRLAAQNLPAHKAFLGGGVRSHHVPPVVQALAARGEFLTAYTPYQPEVSQGVLQATFEYQTMIAELAGLEIANASMYDGATALAEGVLLALRETGRMGVLVSQGVHPEYRAVLRAYLEAVGAKLLTLPLEGGRTPLPEVGEEVGAVVVQNPNFLGALEDLGPFAEAAHGAGALFVAVADPLSLGVLKPPGAYGADIAVGDGQSLGLPMGFGGPHFGFLATKKAFVRQLPGRLVSETVDVEGRRGFILTLQAREQYIRRAKAKSNITTNAQLTALMGAMYLAALGPEGLREVALKSVEMAHKLHALLLEVPGVRPFTPKPFFNEFALALPKDPEAVRRALAERGFHGATPVPREYGENLALFAATELHEEEDLLALREALKEVLA | soluble
17 | MGSDKIHHHHHHAQKNAAAVTLNLAKAVTQSPKTVLMSELASDVRYFPLETTDNCLLGNECSIIYAGNSIIAGDAQTRSFYRFDKNGKFMNKIGRQGQGPEEYAVGLLFFTDPDNQKLYVQDFQDIICYGFNGKFLRRIPAPHLNMGTGAVDGQGSILYCDNNYFMRKDNPQQLFLIDENGKKLKIWKGYMEPGKKYGVNLSTRDVMYCYGGDIYFKPALENLIYKIDANRKKTLAWKFDCSGKDVDVSANEIDPGKRFQSIAVQQVFESDRYFFVLYVLKNESFVGLYDKQKKSFSNVIIKDDLAAGFDFTPPGTGLGNQLANARMVGYLSKGKRYSKALLPERKKELDELINRLDEEDNPVMVVVTLK | not soluble
18 | MDEKIAPHLEELTRALGDLEKTGIRAEFYKLLAFRVSPEVAKETILRKFGGKRKILKVKDLSASLKNFEITGRILDMGEKALRPQEGVQDGPSKLYTGILADETGSVMFSSWKELPGSIGDVINIKNAYTRLWQNRIRLSIGEQSLVSGVSDSSLPGLSELSKTPLKKLIEIGSADFSVSTTACVLQLSHREVPVRGKQSKVISGVLADETARLPFTAWVELPGIDIGSIIRIEGAQIRMFRGMPSINFISSTRISPVPAEEAEKLAFTFESSSKDPSPIKIEEIASRDSMFDVVTAGNIVSVRPGSGIISRCPECSRVIQKSNCRVHGRVEGIRDMRIKAVLDDGTGAMSVMFPRELAEIIYGKTLEEAEQLMFSDISKDAVYEDLRRFLTGRYLAVRGNSSNGEYGASFVAENAWVPEDDLAVRVVELLRRLGPDEGEQSSEVSREGISFALEHHHHHH | soluble
19 | MSAVTYTFLGPQGTFTEAALMQVPGAADATRIPCTNVNTALERVRAGEADAAMVPIENSVEGGVTATLDAIATGQELRIIREALVPITFVLVARPGVELSDIKRISTHGHAWAQCRLWVDEHLPNADYVPGSSTAASAMGLLEDDAPYEAAICAPLIAAEQPGLNVLAEDIGDNPDAVTRFILVSRPGALPERTGADKTTVVVPLPEDHPGALMEILDQFASRGVNLSRIESRPTGQYLGHYFFSIDADGHATDSRVADALAGLHRISPATRFLGSYARADKQPAVVAPHTSDAAFASAHAWVDSILKGS | soluble
20 | NTPYLRPEMFPELAILQQNWQVIRDEGLHLQQLEQIKAADKYNDAGFNSFFKTGWKRFYLKWYEDAHPSASQLCPQTTALLRDIPSVKAAMFATLPDGSRLPRHRDPYAGSLRFHLGLATPNDDRCFIEVDGQRYSWRDGEGVLFDETYIHYAENTSGENRLILFCDIERPMRYRWAQKVNHWLGRHLMSAASAPN | not soluble
21 | MSNSDEQILQFYVEHFEKALEKTQNVLLEFAESPLNHLKPTKRATDAQAFQFNSTCPGVENLNKLEREALFQQSSFVNLWLNLAYTCSKSSLSFWDSRDQGSEGGKLEVFMPRLHDSLTTEFHRIHLDPQEFATICAITTWKIHQWGTVEANTVAGQHYLAVIKELNNHHKKTTTMRDFERALRITEIISLLVPIGRMLQEVKTLYETLGIKDDGRE | not soluble
